Source: patent US20190100602A1 (INSERM INSTITUT NATIONAL DE LA SANT ET DE LA RECHERCHE M …, published 2019)
Where a chain is given by its changes, count along the chain named.

B1: KB-AT-001 (VHH)
VHH: QVQLQQSGGDLAQRGGSLRLSCAASGRTFRNYVMGWFRQAPGKDPEFIAGINRSGAITYYGDSVKGRFTISRDNAKNTVSLQMNSLEPEDTAVYYCAAGETTWSIRRDDYDYWGQGTQVTVSS
notes: Monovalent anti-antithrombin single-domain antibody; also called sdAb KB-AT-001
B2: KB-AT-007 (VHH)
VHH: B1 VHH with D10G, A12V, R14A
notes: Monovalent anti-antithrombin single-domain antibody; same CDRs as KB-AT-001; also called sdAb KB-AT-007
B3: KB-AT-004 (VHH)
VHH: VQLQQSGGGLVQPGGSLRLSCAASAMTFSIRAWAWYRQAPGKQRELVASIGTGDITNYADSVKGRFTISRDNAKNTFYLQMNSLKPEDTAVYYCNGYRSTYAWGQGTQVTVSS
notes: Monovalent anti-antithrombin single-domain antibody; also called sdAb KB-AT-004
B4: KB-AT-005 (VHH)
VHH: EVQLVESGGGLVQPGGSLRLSCEASGRDFNDAALGWSRQVPGKARETVAMITSGGVRNYAETVKDRFTISRDNAKNTVYLDMNNLQPDDTGVYYCKADSFKGDYDTSWYLYWGQGTQVTVSS
notes: Monovalent anti-antithrombin single-domain antibody; also called sdAb KB-AT-005
B5: KB-AT-002 (VHH)
VHH: QVQLVQSGGGLVQAGGSLRLSCAASGRTFNNNGMGWFRQAPGKEREFVAAISWSGGSTYYADSVKGRYIMSRDNAKNTVYLQMNSLKPEDTAVYYCAARTRYNSGLFSRNYDYWGQGTQVTVSS
notes: Monovalent anti-antithrombin single-domain antibody; also called sdAb KB-AT-002
B6: KB-AT-006 (VHH)
VHH: B5 VHH with V5Q, N30S, G55S, I69T, M70I, L106Y, S108T
notes: Monovalent anti-antithrombin single-domain antibody; also called sdAb KB-AT-006

What follows are binders tested against T1, human antithrombin (human, UniProt P01008 33-464) (assay: cell-based or functional assay).
T1 sequence (P01008 33-464 limits assumed): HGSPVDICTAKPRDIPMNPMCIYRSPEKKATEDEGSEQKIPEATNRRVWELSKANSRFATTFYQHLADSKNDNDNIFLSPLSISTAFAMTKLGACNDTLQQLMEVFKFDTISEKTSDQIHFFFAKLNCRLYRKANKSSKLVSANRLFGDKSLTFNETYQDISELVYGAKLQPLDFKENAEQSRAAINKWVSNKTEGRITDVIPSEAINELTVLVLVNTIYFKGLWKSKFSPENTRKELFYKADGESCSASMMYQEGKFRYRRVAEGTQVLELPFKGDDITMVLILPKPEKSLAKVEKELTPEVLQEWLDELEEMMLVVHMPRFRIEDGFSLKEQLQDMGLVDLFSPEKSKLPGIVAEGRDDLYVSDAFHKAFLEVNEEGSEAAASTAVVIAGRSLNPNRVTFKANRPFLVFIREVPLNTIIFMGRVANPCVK

| percentage of neutralization of antithrombin-mediated factor Xa inhibition, with LMW-heparin [%] | percentage of neutralization of antithrombin-mediated thrombin inhibition, with unfractionated heparin [%] | Binder |
| --- | --- | --- |
| < 15 | < 5 | B1 |
| < 15 | < 5 | B2 |
| < 15 | < 5 | B3 |
| < 15 | < 5 | B4 |
| < 15 | < 5 | B5 |
| < 15 | < 5 | B6 |

What follows are binders tested against T2, rabbit antithrombin (rabbit) (assay: ELISA, sdAb coated, plasma 1/4, bound antithrombin probed with polyclonal anti-antithrombin).
T2 construct: Native protein in plasma diluted 1/4; also called rabbit AT; antithrombin in rabbit plasma
Description: (§1) sdAbs KB-AT-001, -002. -003, -004, -005, -006, and -007 were immobilized (10 microgram/ml) in 10 mM NaHCO₃, 50 mM Na2CO3 (pH 9.5) in a volume of 50 microliter in half-well microtiter plates (Greiner Bio-One, Les Ulis, France) for 16 h at 4° C. As a positive control, polyclonal anti-antithrombin antibodies (MATIII-EIA kit, Affinity biologicals, Ancaster Canada) were immobilized in a similar fashion. As a negative control, the anti-von Willebrand sdAb KB-VWF-006 was immobilized. After washing the wells three times with 100 microliter/well using Tris-buffered saline (pH 7.6) supplemented with 0.1% Tween-20 (TBS-T), wells were blocked with 100 microliter/well of TBS-T supplemented with 3% bovine serum albumin (BSA) for 30 min at 37° C. Wells were washed as described above, and subsequently the following plasma preparations (diluted ¼ in TBS-T/3% BSA, 100 microliter per well, 2 hours at 37° C.) were added to each of the immobilized sdAbs and both types of control wells: rabbit plasma, canine plasma, simian plasma, bovine plasma, porcine plasma, rat plasma, murine plasma and human plasma.
(§2) Wells were then washed three times with 100 microliter/well using TBS-T. Bound antithrombin was probed with peroxidase-labeled polyclonal anti-antithrombin antibodies (MATIII-EIA kit, Affinity biologicals, Ancaster Canada; diluted 1/100) for 2 hours at 37° C. with 50 microliter per well. Wells were then washed three times with 100 microliter/well using TBS-T. Residual peroxidase activity was detected by measuring peroxidase-mediated hydrolysis of 3,3′,5,5′-tetramethylbenzidine.
(§3) Negative binding (−) was defined as optical density (OD) being ≤0.1, moderate positive binding (+) was defined as OD being >0.1 and <0.5, strongly positive binding (++) was defined as OD being ≥0.5. […] All plasma preparations had moderate or strongly positive binding to the positive control (polyclonal anti-antithrombin antibodies).

| OD [od] | Binder |
| --- | --- |
| ≤ 0.1 | B2 |
| ≤ 0.1 | B3 |
| ≤ 0.1 | B4 |

What follows are binders tested against T3, bovine antithrombin (bovine, UniProt P41361 33-465) in the same assay as above.
T3 construct: Native protein in plasma diluted 1/4; also called bovine AT; antithrombin in bovine plasma
Description: as §1, §2, §3

T3 sequence (P41361 33-465): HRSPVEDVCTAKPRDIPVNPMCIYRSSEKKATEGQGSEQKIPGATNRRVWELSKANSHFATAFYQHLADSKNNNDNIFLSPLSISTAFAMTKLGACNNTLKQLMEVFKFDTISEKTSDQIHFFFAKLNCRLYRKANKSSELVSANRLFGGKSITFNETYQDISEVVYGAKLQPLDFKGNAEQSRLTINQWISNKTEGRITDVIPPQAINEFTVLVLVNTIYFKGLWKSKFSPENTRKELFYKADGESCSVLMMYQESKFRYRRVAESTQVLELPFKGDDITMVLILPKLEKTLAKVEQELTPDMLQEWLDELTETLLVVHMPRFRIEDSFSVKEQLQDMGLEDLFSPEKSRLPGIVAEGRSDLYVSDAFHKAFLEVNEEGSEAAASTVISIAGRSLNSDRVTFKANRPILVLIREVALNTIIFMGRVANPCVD

| OD [od] | Binder |
| --- | --- |
| ≤ 0.1 | B1 |
| ≤ 0.1 | B2 |
| ≤ 0.1 | B3 |
| ≤ 0.1 | B4 |
| ≤ 0.1 | B6 |

The binders below were run against T4, canine antithrombin (canine) in the same assay as above.
T4 construct: Native protein in plasma diluted 1/4; also called canine AT; antithrombin in canine plasma
Description: as §1, §2, §3

| OD [od] | Binder |
| --- | --- |
| ≤ 0.1 | B1 |
| ≤ 0.1 | B2 |
| ≤ 0.1 | B4 |

The binders below were run against T5, porcine antithrombin (porcine) in the same assay as above.
T5 construct: Native protein in plasma diluted 1/4; also called porcine AT; antithrombin in porcine plasma
Description: as §1, §2, §3

| OD [od] | Binder |
| --- | --- |
| ≤ 0.1 | B1 |
| ≤ 0.1 | B2 |
| ≤ 0.1 | B4 |

What follows are binders tested against T6, rat antithrombin (rat, UniProt Q8VHJ4) in the same assay as above.
T6 construct: Native protein in plasma diluted 1/4; also called rat AT; antithrombin in rat plasma
Description: as §1, §2, §3

| OD [od] | Binder |
| --- | --- |
| ≤ 0.1 | B2 |
| ≤ 0.1 | B4 |

Each binder was assayed against T1, human antithrombin (assay: BLI (Octet-QK), sdAb coupled to sensor, antithrombin 12.5-50 ug/ml; apparent KD).
Description: The interaction between sdAbs KB-AT-001, KB-AT-002, KB-AT-003 and KB-AT-006 versus human antithrombin was further analyzed via biolayer-interferometry analysis using Octet-QK equipment in order to determine apparent dissociation constants (KD,app). To this end, sdAbs KB-AT-001, KB-AT-002, KB-AT-003 and KB-AT-006 were diluted in 0.1 M Mes (pH 5.0) to a concentration of 200 microgram/ml for coupling to EDC/NHS-activated amine-reactive biosensors (Fort6bio, Menlo Park, Calif., USA). Sensors were rehydrated in 0.2 ml 0.1 M MES, pH 5.0 for 300 sec. Sensors were then activated via incubation with 0.1 ml 0.2 M EDC/0.095 M NHS mixture for 300 sec and subsequently incubated with 0.1 ml sdAb-solution for 600 sec. […] Following this association phase, sensors were transferred to wells containing PBS-T and incubated for 900 sec, allowing dissociation of the antithrombin-sdAb complex. Obtained data were subsequently analyzed using Octet-QK data analysis software (Origin vs 4) to estimate KD,app.

| Kd [nM] | Binder |
| --- | --- |
| 14 | B1 |
| 4 | B5 |
| 22 | B6 |

Target: T1, human antithrombin
Assay: cell-based or functional assay
Remark: another data set of the same source

| % antithrombin neutralization (thrombin amidolytic activity on S-2238, no heparin) [%] | Binder |
| --- | --- |
| 62 | B1 |
| 61 | B2 |
| 55 | B3 |
| 57 | B4 |
| 65 | B5 |
| 58 | B6 |

What follows are binders tested against T7, murine antithrombin (mouse, UniProt P32261 33-465) (assay: ELISA: sdAb coated on the plate, antithrombin added in solution; the concentration is that of antithrombin).
T7 construct: also called mouse antithrombin; murine AT
Description: (§4) sdAbs recognizing antithrombin (KB-AT-001, -002, -003, -004, -005, -006, and -007) were immobilized (5 microgram/ml) in 10 mM NaHCO₃, 50 mM Na2CO3 (pH 9.5) in a volume of 50 microliter in half-well microtiter plates (Greiner Bio-One, Les Ulis, France) for 16 h at 4° C. After washing the wells three times with 100 microliter/well using Tris-buffered saline (pH 7.6) supplemented with 0.1% Tween-20 (TBS-T), wells were blocked with 100 microliter/well of TBS-T supplemented with 5% skimmed milk for 30 min at 37° C. Wells were washed as described above, and subsequently different concentrations of purified human antithrombin or murine antithrombin (0-5 micromolar diluted in Tris-buffered saline (pH 7.6) supplemented with 5% skimmed milk; 50 microliter/well) were added to each of the immobilized sdAbs and incubated for 2 hours. Wells were then washed three times with 100 microliter/well using TBS-T. Bound antithrombin was probed with peroxidase-labeled polyclonal rabbit anti-antithrombin antibodies (Diagnostica Stago, Asnièrs-sur-Seine, France; Dilution 1/100) for 1 hour at 37° C. with 50 microliter per well. Wells were then washed three times with 100 microliter/well using TBS-T. Residual peroxidase activity was detected by measuring peroxidase-mediated hydrolysis of 3,3′,5,5′-tetramethylbenzidine. OD-values were plotted against antithrombin concentrations (FIG. 1).

T7 sequence (P32261 33-465 limits assumed): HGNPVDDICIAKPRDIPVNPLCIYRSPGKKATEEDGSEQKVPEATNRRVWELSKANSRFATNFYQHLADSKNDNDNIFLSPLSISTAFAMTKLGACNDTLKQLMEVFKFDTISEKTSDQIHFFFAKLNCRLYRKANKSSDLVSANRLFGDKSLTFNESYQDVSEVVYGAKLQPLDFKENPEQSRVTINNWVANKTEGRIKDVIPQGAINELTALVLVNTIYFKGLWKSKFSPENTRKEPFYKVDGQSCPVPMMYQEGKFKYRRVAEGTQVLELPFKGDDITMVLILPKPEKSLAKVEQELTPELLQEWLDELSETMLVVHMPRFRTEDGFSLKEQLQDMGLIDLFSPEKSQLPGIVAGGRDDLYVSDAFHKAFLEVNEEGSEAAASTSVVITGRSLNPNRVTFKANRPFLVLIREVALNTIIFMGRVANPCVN

| EC50 (read off the curve) [nM] | Binder |
| --- | --- |
| ~600 | B1 |
| ~400 | B4 |
| ~500 | B5 |

Each binder was assayed against T1, human antithrombin in the same assay as above.
Description: as §4

| EC50 (read off the curve) [nM] | Binder |
| --- | --- |
| ~700 | B1 |
| ~600 | B5 |
| ~500 | B6 |

What follows are binders tested against T2, rabbit antithrombin (assay: ELISA, sdAb coated, plasma 1/4, bound antithrombin probed with polyclonal anti-antithrombin; grade by OD).
Description: as §1, §2, §3

| OD [od] | Binder |
| --- | --- |
| 0.1 to 0.5 | B1 |
| ≥ 0.5 | B5 |
| ≥ 0.5 | B6 |

What follows are binders tested against T3, bovine antithrombin in the same assay as above.
Description: as §1, §2, §3

| OD [od] | Binder |
| --- | --- |
| ≥ 0.5 | B5 |

Each binder was assayed against T7, murine antithrombin in the same assay as above.
Description: as §1, §2, §3

| OD [od] | Binder |
| --- | --- |
| ≥ 0.5 | B1 |
| 0.1 to 0.5 | B2 |
| ≥ 0.5 | B3 |
| 0.1 to 0.5 | B4 |
| ≥ 0.5 | B5 |
| 0.1 to 0.5 | B6 |

Each binder was assayed against T1, human antithrombin in the same assay as above.
Description: as §1, §2, §3

| OD [od] | Binder |
| --- | --- |
| 0.1 to 0.5 | B1 |
| 0.1 to 0.5 | B2 |
| 0.1 to 0.5 | B3 |
| 0.1 to 0.5 | B4 |
| ≥ 0.5 | B5 |
| 0.1 to 0.5 | B6 |

Each binder was assayed against T4, canine antithrombin in the same assay as above.
Description: as §1, §2, §3

| OD [od] | Binder |
| --- | --- |
| 0.1 to 0.5 | B3 |
| ≥ 0.5 | B5 |
| 0.1 to 0.5 | B6 |

The binders below were run against T5, porcine antithrombin in the same assay as above.
Description: as §1, §2, §3

| OD [od] | Binder |
| --- | --- |
| 0.1 to 0.5 | B3 |
| ≥ 0.5 | B5 |
| 0.1 to 0.5 | B6 |

What follows are binders tested against T6, rat antithrombin in the same assay as above.
Description: as §1, §2, §3

| OD [od] | Binder |
| --- | --- |
| 0.1 to 0.5 | B1 |
| 0.1 to 0.5 | B3 |
| ≥ 0.5 | B5 |
| 0.1 to 0.5 | B6 |

These binders were tested against T8, simian antithrombin (simian) in the same assay as above.
T8 construct: Native protein in plasma diluted 1/4; also called simian AT; antithrombin in simian plasma
Description: as §1, §2, §3

| OD [od] | Binder |
| --- | --- |
| ≥ 0.5 | B1 |
| ≥ 0.5 | B2 |
| 0.1 to 0.5 | B3 |
| 0.1 to 0.5 | B4 |
| ≥ 0.5 | B5 |
| ≥ 0.5 | B6 |
